Test results from article PMC2958839, “Multiple FadD Acyl-CoA Synthetases Contribute to Differential Fatty Acid Degradation and Virulence in Pseudomonas aeruginosa” (PLoS ONE, 2010).

Legend:
Experiment in all cases: purified protein
Details in all cases: 5 mM ATP, 0.5 mM CoASH, 30-300 µM FA, 10 mM MgCl2, 0.1% Triton X-100, pH 7.2, 37°C, printed unit mM conflicts with printed kcat/Km and FA range (implies µM)
CCCCCCCC(=O)O = system: CCCCCCCC(=O)O
CCCC(=O)O = system: CCCC(=O)O
Source text: (§1) DTNB (Ellman) assay of CoASH consumption, A412, Hanes-Woolf plot on FadD1
CCCCCCCCCCCCCCCC(=O)O = system: CCCCCCCCCCCCCCCC(=O)O
CCCCCCCCCCCCCC(=O)O = system: CCCCCCCCCCCCCC(=O)O
CCCCCC(=O)O = system: CCCCCC(=O)O
CCCCCCCCCCCC(=O)O = system: CCCCCCCCCCCC(=O)O
CCCCCCCCCC(=O)O = system: CCCCCCCCCC(=O)O
Source text: as §1

Row | Substance | kcat (CCCCCCCC(=O)O) [s⁻¹] | kcat (CCCC(=O)O) [s⁻¹] | kcat (CCCCCCCCCCCCCCCC(=O)O) [s⁻¹] | kcat (CCCCCCCCCCCCCC(=O)O) [s⁻¹] | kcat (CCCCCC(=O)O) [s⁻¹] | kcat (CCCCCCCCCCCC(=O)O) [s⁻¹] | kcat (CCCCCCCCCC(=O)O) [s⁻¹]
1 | FadD1 (Pseudomonas aeruginosa PAO1) | 0.128 | 0.141 | 0.158 | 0.134 | 0.137 | 0.134 | 0.119
2 | FadD2 (Pseudomonas aeruginosa PAO1) | 0.210 | – | 0.102 | 0.112 | 0.164 | 0.141 | –
